# Results as given in paper PMC10046460, “Phase I Trial of [^99mTc]Tc-maSSS-PEG2-RM26, a Bombesin Analogue Antagonistic to Gastrin-Releasing Peptide Receptors (GRPRs), for SPECT Imaging of GRPR Expression in Malignant Tumors” (Cancers, 2023).
# Like-named read-outs stand apart in the source and are kept apart here. Square brackets hold non-standard residues; d marks the D form. Peptide text beside a SMILES is read from it. * marks the point of attachment. Sta = CC(C)C[C@H](N)[C@@H](O)CC(=O)O; Mercaptoacetyl = O=C(CS)*; AEEA = NCCOCCOCC(=O)O
# What was measured:
# [1] = in vivo; cited from earlier work
# Source text: The biodistribution of [^99mTc]Tc-maSSS-PEG2-RM26 was characterized by the rapid whole body elimination and blood clearance of unbound tracers (Figure 4). This decreases the background caused by the blood-borne activity and creates preconditions for high-contrast imaging. The clinical trial confirmed the major feature of the tracer found in the preclinical studies, a substantial degree of hepatobiliary excretion. The hepatobiliary excretion of [^99mTc]Tc-maSSS-PEG2-RM26 was the highest among other GRPR antagonists tested in clinics and was similar to the excretion of [^99mTc]Tc-RP527, a ...
# clinical = details: human, in vivo; for tissue uptake dose at 2 h / tissue uptake dose at 4 h / tissue uptake dose at 6 h / tissue uptake dose at 24 h: iv, 40 ug, total radioactivity, Distribution, SD
# Description: (§1) Patients were injected with [^99mTc]Tc-maSSS-PEG2-RM26 (40 µg of maSSS-PEG2-RM26 labeled with 640 ± 165 MBq for PCa and 695 ± 120 MBq for BCa patients per injection) as a single intravenous bolus. Imaging was performed using a hybrid system (Symbia Intevo T16), equipped with a dual-head gamma camera and an integrated 16-slice CT scanner. For imaging, a low-energy high-resolution collimator was used. Patients underwent whole-body planar images (anterior and posterior, with a of scan speed 12 cm/min in a 1024 × 256 pixel matrix) and SPECT-CT acquisition (32 projections, 30 s each, in a 128 × 128 pixel matrix) and a low-dose CT (140 kVp, 20 mAs/slice in a 512 × 512 pixel matrix) were performed 2, 4, 6, and 24 h after injection. The images were transferred to a Syngo.via (Siemens) workstation for analysis.
# (§2) The geometric means of counts in the regions of interest (ROIs) drawn over organs and the whole body for anterior and posterior projections were calculated for every time point. An ROI for the heart was used to estimate activity concentrations in the blood. Quantification was performed as described previously. Absorbed doses for individual organs, effective doses, and effective dose equivalents were calculated in OLINDA/EXM 1.1 (adult male phantom for PCa and adult female phantom for BCa) using average residence times derived from activity distributions over time fitted to a single exponential using Prism 9.2.0 (GraphPad Software, LLC, Boston, MA, USA).
# [2] = target: T1, gastrin-releasing peptide receptor (GRPR) (Homo sapiens, UniProt P30550); assay: SPECT/CT imaging of tumor uptake in PCa patients; type: in vivo; details: for SUVmax: prostate tumor, 40 µg iv; for SUVmax / Ratio SUVmax in Tumor to Background: 2 h post administration
# T1 construct: from tissue; host or cells: primary prostate cancer, primary breast cancer and axillary lymph-node metastases in living patients
# Description: (§3) A single-center diagnostic phase I open-label exploratory study (ClinicalTrials.gov ID NCT04746638) was conducted at the Cancer Research Institute, Tomsk National Research Medical Center of the Russian Academy of Sciences, and the initial protocol was approved by the Institute’s Scientific Council and Board of Medical Ethics (protocol 14, approved 21 December 2020). Patients (18–70 y) with clinically and radiologically diagnosed (with histological verification) PCa or BCa were included in this study after providing written informed consent. Criteria for inclusion were: the ability to undergo planned diagnostic investigations; patient’s hematological, liver, and renal function test results within the normal limits; and a negative pregnancy test for BCa patients. The exclusion criteria included contraindications to surgical intervention due to severe concomitant pathology; a second malignancy (non-breast or non-prostate); activity/history of autoimmune disease, hepatitis B or C, HIV, or infectious diseases within the preceding 3 months; participation in other clinical studies; and ongoing toxicity over grade 2 from previous standards or investigational therapies. Additionally, for PCa patients, exclusion criteria were androgen deprivation therapy over 3 months, and for BCa patients, exclusion criteria were HER2-positive or non-luminal cancer, in situ T0 and T3-4 tumors, the presence of distant metastases, and history of chemo- and/or hormone-therapy. Six male PCa and seven female BCa patients were included in the study (Figure 1 and Figure 2).
# as §1
# [3] = target: T1, gastrin-releasing peptide receptor (GRPR); assay: SPECT/CT imaging of tumor and LN metastasis uptake in BCa patients; type: in vivo; details: for SUVmax, tumor (T) / SUVmax, single LN metastasis (LNM): 2 h post administration, 40 µg iv; for median activity accumulation (SUVmax): 2 h after injection, Me [Q1–Q3]
# Description: as §3, §1
# [4] = set-up: species or system human; details: in vivo
# Description: as §2
# [5] = system: prostate-specific membrane antigen (PSMA); details: PCa patients; cited from earlier work
# Description: Prostate and breast cancers are the most common sex-related malignancies, with an increasing incidence in many countries over the past 30 years. Accurate diagnosis and staging of the diseases are important for the prognosis and determination of treatment tactics for these pathologies. […] Many derivatives of this pseudo-peptide were tested clin ...
# T1 sequence (P30550 whole entry): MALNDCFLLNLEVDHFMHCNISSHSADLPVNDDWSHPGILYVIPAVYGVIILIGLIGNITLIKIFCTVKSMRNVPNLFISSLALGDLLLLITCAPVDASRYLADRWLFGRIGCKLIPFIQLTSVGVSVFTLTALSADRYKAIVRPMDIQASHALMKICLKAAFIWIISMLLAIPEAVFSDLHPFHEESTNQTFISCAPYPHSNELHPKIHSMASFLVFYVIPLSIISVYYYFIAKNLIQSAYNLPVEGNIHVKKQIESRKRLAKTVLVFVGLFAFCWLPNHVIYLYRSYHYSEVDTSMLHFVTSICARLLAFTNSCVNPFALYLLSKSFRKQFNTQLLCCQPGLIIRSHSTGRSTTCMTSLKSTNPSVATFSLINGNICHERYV
compound,measurement,setting,value
"D-Phe-Gln-Trp-Ala-Val-Sar-His-Sta-Leu-NHEt [[^99mTc]Tc-DB15, ^99mTc-labeled BN antagonist for SPECT, tested in two patients]",route of excretion,[1],Predominantly renal excretion
"CC(C)C[C@H](NC(=O)C[C@H](O)[C@H](CC(C)C)NC(=O)[C@H](Cc1c[nH]cn1)NC(=O)CNC(=O)[C@@H](NC(=O)[C@H](C)NC(=O)[C@H](Cc1c[nH]c2ccccc12)NC(=O)[C@H](CCC(N)=O)NC(=O)[C@@H](Cc1ccccc1)NC(=O)COCCOCCNC(=O)[C@H](CO)NC(=O)[C@H](CO)NC(=O)[C@H](CO)NC(=O)CS)C(C)C)C(N)=O [[^99mTc]Tc-maSSS-PEG2-RM26, metal not drawn] (Mercaptoacetyl-SSS[AEEA][dF]QWAVGH[Sta]L-NH2)",tissue uptake dose at 2 h,"clinical; female, Gall bladder",5 ± 5 %ID
same,tissue uptake dose at 4 h,"clinical; female, Gall bladder",5 ± 4 %ID
same,tissue uptake dose at 6 h,"clinical; female, Gall bladder",4 ± 3 %ID
same,tissue uptake dose at 24 h,"clinical; female, Gall bladder",0.3 ± 0.1 %ID
same,tissue uptake dose at 2 h,"clinical; female, Jejunum",21 ± 9 %ID
same,tissue uptake dose at 4 h,"clinical; female, Jejunum",25 ± 17 %ID
same,tissue uptake dose at 6 h,"clinical; female, Jejunum",13 ± 10 %ID
same,tissue uptake dose at 24 h,"clinical; female, Jejunum",3 ± 2 %ID
same,tissue uptake dose at 2 h,"clinical; female, Kidney",5 ± 3 %ID
same,tissue uptake dose at 4 h,"clinical; female, Kidney",3 ± 3 %ID
same,tissue uptake dose at 6 h,"clinical; female, Kidney",3 ± 3 %ID
same,tissue uptake dose at 24 h,"clinical; female, Kidney",5 ± 5 %ID
same,tissue uptake dose at 2 h,"clinical; female, Liver",6 ± 2 %ID
same,tissue uptake dose at 4 h,"clinical; female, Liver",3 ± 1 %ID
same,tissue uptake dose at 6 h,"clinical; female, Liver",3 ± 2 %ID
same,tissue uptake dose at 24 h,"clinical; female, Liver",2 ± 2 %ID
same,tissue uptake dose at 2 h,"clinical; female, Lower colon",1.4 ± 0.8 %ID
same,tissue uptake dose at 4 h,"clinical; female, Lower colon",1 ± 0.9 %ID
same,tissue uptake dose at 6 h,"clinical; female, Lower colon",0.8 ± 0.7 %ID
same,tissue uptake dose at 24 h,"clinical; female, Lower colon",20 ± 15 %ID
same,tissue uptake dose at 2 h,"clinical; female, Upper colon",1.1 ± 0.6 %ID
same,tissue uptake dose at 4 h,"clinical; female, Upper colon",6 ± 12 %ID
same,tissue uptake dose at 6 h,"clinical; female, Upper colon",19 ± 17 %ID
same,tissue uptake dose at 24 h,"clinical; female, Upper colon",15 ± 10 %ID
same,tissue uptake dose at 2 h,"clinical; female, Urinary bladder",4 ± 7 %ID
same,tissue uptake dose at 4 h,"clinical; female, Urinary bladder",1 ± 2 %ID
same,tissue uptake dose at 6 h,"clinical; female, Urinary bladder",0.3 ± 0.3 %ID
same,tissue uptake dose at 24 h,"clinical; female, Urinary bladder",0.2 ± 0.2 %ID
same,activity in liver and kidneys,clinical,over 3 % of injected activity
same,injected activity excreted via bile,clinical,Up to 40%
same,route of excretion,clinical,predominantly hepatobiliary excretion
same,tissue uptake dose at 2 h,"clinical; male, Gall bladder",2 ± 2 %ID
same,tissue uptake dose at 4 h,"clinical; male, Gall bladder",2 ± 2 %ID
same,tissue uptake dose at 6 h,"clinical; male, Gall bladder",2 ± 2 %ID
same,tissue uptake dose at 24 h,"clinical; male, Gall bladder",2.2 ± 0.3 %ID
same,tissue uptake dose at 2 h,"clinical; male, Jejunum",12 ± 12 %ID
same,tissue uptake dose at 4 h,"clinical; male, Jejunum",9 ± 9 %ID
same,tissue uptake dose at 6 h,"clinical; male, Jejunum",9 ± 19 %ID
same,tissue uptake dose at 24 h,"clinical; male, Jejunum",10 ± 1 %ID
same,tissue uptake dose at 2 h,"clinical; male, Kidney",2.9 ± 0.9 %ID
same,tissue uptake dose at 4 h,"clinical; male, Kidney",3 ± 3 %ID
same,tissue uptake dose at 6 h,"clinical; male, Kidney",3 ± 1 %ID
same,tissue uptake dose at 24 h,"clinical; male, Kidney",2.4 ± 0.9 %ID
same,tissue uptake dose at 2 h,"clinical; male, Liver",4 ± 2 %ID
same,tissue uptake dose at 4 h,"clinical; male, Liver",2.2 ± 0.8 %ID
same,tissue uptake dose at 6 h,"clinical; male, Liver",1.8 ± 0.6 %ID
same,tissue uptake dose at 24 h,"clinical; male, Liver",2 ± 1 %ID
same,tissue uptake dose at 2 h,"clinical; male, Lower colon",0.6 ± 0.5 %ID
same,tissue uptake dose at 4 h,"clinical; male, Lower colon",0.2 ± 0.2 %ID
same,tissue uptake dose at 6 h,"clinical; male, Lower colon",0.5 ± 0.4 %ID
same,tissue uptake dose at 24 h,"clinical; male, Lower colon",0.4 ± 0.2 %ID
same,tissue uptake dose at 2 h,"clinical; male, Upper colon",1.1 ± 1 %ID
same,tissue uptake dose at 4 h,"clinical; male, Upper colon",8 ± 3 %ID
same,tissue uptake dose at 6 h,"clinical; male, Upper colon",20 ± 13 %ID
same,tissue uptake dose at 24 h,"clinical; male, Upper colon",7 ± 8 %ID
same,tissue uptake dose at 2 h,"clinical; male, Urinary bladder",4 ± 6 %ID
same,tissue uptake dose at 4 h,"clinical; male, Urinary bladder",2 ± 1 %ID
same,tissue uptake dose at 6 h,"clinical; male, Urinary bladder",0.6 ± 0.4 %ID
same,tissue uptake dose at 24 h,"clinical; male, Urinary bladder",0.16 ± 0.07 %ID
same,SUVmax,"[2]; PCa patient P2, SPECT/CT",0.78 (1.7 × 2)
same,SUVmax,"[2]; PCa patient P3, SPECT/CT",1.21 (4.1 × 2.8)
same,SUVmax,"[2]; PCa patient P4, SPECT/CT",1.14 (1.8 × 2.0)
same,Ratio SUVmax in Tumor to Background,[2]; PCa patient P5,No accumulation
same,SUVmax,"[2]; PCa patient P5, SPECT/CT",No accumulation
same,Ratio SUVmax in Tumor to Background,[2]; PCa patient P6,No accumulation
same,SUVmax,"[2]; PCa patient P6, SPECT/CT",No accumulation
same,patients with uptake in tumors identified,"[2]; PCa patients, SPECT/CT",four out of six
same,median activity accumulation (SUVmax),"[2]; prostate tumors, 2 h after injection, Me [Q1–Q3]",1.18 [0.78–1.67]
same,"SUVmax, tumor (T)","[3]; BCa patient B1, SPECT/CT",T: 1.41 (2.8 × 2.2)
same,"SUVmax, single LN metastasis (LNM)","[3]; BCa patient B2, SPECT/CT",1.8
same,"SUVmax, tumor (T)","[3]; BCa patient B2, SPECT/CT",1.75
same,"SUVmax, single LN metastasis (LNM)","[3]; BCa patient B3, SPECT/CT",1.8
same,"SUVmax, tumor (T)","[3]; BCa patient B3, SPECT/CT",0.87
same,"SUVmax, single LN metastasis (LNM)","[3]; BCa patient B4, SPECT/CT",0.58
same,"SUVmax, tumor (T)","[3]; BCa patient B4, SPECT/CT",0.57
same,"SUVmax, single LN metastasis (LNM)","[3]; BCa patient B5, SPECT/CT",1.8
same,"SUVmax, tumor (T)","[3]; BCa patient B5, SPECT/CT",0.87
same,"SUVmax, tumor (T)","[3]; BCa patient B6, SPECT/CT",T: 0.43 (1.5 × 1.5)
same,"SUVmax, tumor (T)","[3]; BCa patient B7, SPECT/CT",T: 0.50 (1.5 × 1.4)
same,patients with high uptake in axillary LN,"[3]; BCa patients, SPECT/CT",four BCa patients
same,patients with increased accumulation in the tumor,"[3]; BCa patients, SPECT/CT",seven out of seven
same,median activity accumulation (SUVmax),[3]; LN metastases in BCa patients,1.8 [0.58–1.8]
same,median activity accumulation (SUVmax),[3]; breast tumors,0.87 [0.43–1.75]
same,radionuclide-associated dose burden per patient,[4],3-6 mSv/study
same,"Absorbed dose, Ovaries",[4]; iv,0.018 ± 0.008
same,"Absorbed dose, Testes",[4]; iv,0.004 ± 0.005
same,"Absorbed dose, Uterus",[4]; iv,0.020 ± 0.008
O=C(O)CC[C@H](NC(=O)N[C@@H](CCCCNC(=O)c1ccc([18F])nc1)C(=O)O)C(=O)O [^18F-DCFPyL],sensitivity in the detection of LN metastases,[5],40%
O=C([O-])CN(CCN(CC(=O)[O-])Cc1cc(CCC(=O)NCCCCCC(=O)NCCCC[C@H](NC(=O)N[C@@H](CCC(=O)O)C(=O)O)C(=O)O)ccc1[O-])Cc1cc(CCC(=O)O)ccc1[O-].[68Ga+3].[OH3+] [^68Ga-PSMA],sensitivity in the detection of LN metastases,[5],61%
